Experimental findings from FireProtDB (doi:10.1021/bi9929958) are described below.

A word on the Tm: it is the temperature at which the thermal transition is half complete.

B1: Superoxide dismutase [Mn], mitochondrial, P04179 (parent)
chain: MLSRAVCGTSRQLAPVLGYLGSRQKHSLPDLPYDYGALEPHINAQIMQLHHSKHHAAYVNNLNVTEEKYQEALAKGDVTAQIALQPALKFNGGGHINHSIFWTNLSPNGGGEPKGELLEAIKRDFGSFDKFKEKLTAASVGVQGSGWGWLGFNKERGHLQIAACPNQDPLQGTTGLIPLLGIDVWEHAYYLQYKNVRPDYLKAIWNVINWENVTERYMACKK

In the data set the parent is B1. Particulars: Homo sapiens; pH 7.8; Thermal; DSC; Potassium phosphate 20 mM; reversible: yes; structure 1N0J; whole UniProt chain shown.

Consider Q167H, for which the Tm came to 88.9 °C and the “change of melting temperature, mutant - wild type (higher = more stable)” value (“change of melting temperature, mutant” below) came to 0 °C.

Consider Q167V, for which the Tm is 68.2 °C and the “change of melting temperature, mutant” value was -20.7 °C.

With Q167E, the Tm is 103 °C and the “change of melting temperature, mutant” value was found to be 14.1 °C.

Regarding Q167A, the midpoint of thermal melting (Tm) was 79.8 °C and the “change of melting temperature, mutant” value was -9.1 °C.

Regarding Q167S, the Tm is 94.9 °C and the “change of melting temperature, mutant” value amounted to 6 °C.
